Laboratory results taken from IntAct's records for PubMed 17986610.

Assays:
trcb_xenla fbxw1 = trcb_xenla fbxw1 (UniProt Q91854)
plk1_xenla plk1 = plk1_xenla plk1 (UniProt P70032)
Sequence of plk1_xenla plk1 (P70032 whole entry): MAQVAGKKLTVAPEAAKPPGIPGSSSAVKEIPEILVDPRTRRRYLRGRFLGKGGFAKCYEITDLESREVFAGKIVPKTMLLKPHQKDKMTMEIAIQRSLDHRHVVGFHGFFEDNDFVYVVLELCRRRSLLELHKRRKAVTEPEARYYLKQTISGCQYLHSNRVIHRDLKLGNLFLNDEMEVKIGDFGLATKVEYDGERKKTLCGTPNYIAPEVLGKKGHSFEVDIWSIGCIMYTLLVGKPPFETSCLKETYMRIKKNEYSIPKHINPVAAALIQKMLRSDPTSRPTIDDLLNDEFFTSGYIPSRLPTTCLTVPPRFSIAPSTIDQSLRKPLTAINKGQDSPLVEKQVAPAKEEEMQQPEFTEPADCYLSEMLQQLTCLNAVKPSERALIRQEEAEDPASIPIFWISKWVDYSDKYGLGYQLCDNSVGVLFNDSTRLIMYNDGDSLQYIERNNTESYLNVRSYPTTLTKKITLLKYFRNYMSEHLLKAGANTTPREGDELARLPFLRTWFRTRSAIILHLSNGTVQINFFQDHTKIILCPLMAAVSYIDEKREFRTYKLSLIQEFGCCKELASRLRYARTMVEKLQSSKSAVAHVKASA

Sequence of trcb_xenla fbxw1 (Q91854 whole entry): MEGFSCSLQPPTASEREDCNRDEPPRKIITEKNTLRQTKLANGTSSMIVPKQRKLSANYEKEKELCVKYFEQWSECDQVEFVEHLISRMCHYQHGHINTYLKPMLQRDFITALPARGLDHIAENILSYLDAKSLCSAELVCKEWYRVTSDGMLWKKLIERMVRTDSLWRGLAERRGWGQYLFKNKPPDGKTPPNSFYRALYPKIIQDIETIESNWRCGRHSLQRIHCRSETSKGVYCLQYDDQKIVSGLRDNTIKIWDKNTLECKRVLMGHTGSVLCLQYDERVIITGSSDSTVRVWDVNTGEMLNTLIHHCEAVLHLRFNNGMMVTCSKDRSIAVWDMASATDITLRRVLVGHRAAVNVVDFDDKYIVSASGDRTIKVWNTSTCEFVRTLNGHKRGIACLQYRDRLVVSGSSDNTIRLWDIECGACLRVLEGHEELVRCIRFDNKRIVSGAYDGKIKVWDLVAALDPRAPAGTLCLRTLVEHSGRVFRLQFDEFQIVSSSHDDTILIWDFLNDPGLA
Sequence of Cytoplasmic polyadenylation element-binding protein 1-A (Xenopus laevis (African clawed frog)), Q91572 T125A (Q91572 whole entry T125A): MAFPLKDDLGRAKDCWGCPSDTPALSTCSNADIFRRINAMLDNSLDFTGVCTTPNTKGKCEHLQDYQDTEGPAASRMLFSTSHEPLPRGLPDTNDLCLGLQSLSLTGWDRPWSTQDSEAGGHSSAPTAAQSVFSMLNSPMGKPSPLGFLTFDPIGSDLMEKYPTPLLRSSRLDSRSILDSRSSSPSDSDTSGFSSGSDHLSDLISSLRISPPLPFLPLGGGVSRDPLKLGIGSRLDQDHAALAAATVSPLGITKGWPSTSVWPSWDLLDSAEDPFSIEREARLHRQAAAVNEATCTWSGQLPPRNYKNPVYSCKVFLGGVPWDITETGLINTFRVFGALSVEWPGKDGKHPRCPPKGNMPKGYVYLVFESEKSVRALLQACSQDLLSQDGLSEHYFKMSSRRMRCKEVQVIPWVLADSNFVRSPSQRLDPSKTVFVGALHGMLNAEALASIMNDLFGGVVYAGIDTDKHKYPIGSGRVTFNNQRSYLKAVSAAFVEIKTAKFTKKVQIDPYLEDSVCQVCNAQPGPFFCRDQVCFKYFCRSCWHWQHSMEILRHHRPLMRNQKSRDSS
Sequence of Cytoplasmic polyadenylation element-binding protein 1-A (Xenopus laevis (African clawed frog)), Q91572 G192A (Q91572 whole entry G192A): as the sequence (Q91572 whole entry T125A) above, with A125T, G192A counted along it

| Substance | effect of a mutation on the interaction (trcb_xenla fbxw1) | effect of a mutation on the interaction (plk1_xenla plk1) |
| --- | --- | --- |
| Cytoplasmic polyadenylation element-binding protein 1-A (Xenopus laevis (African clawed frog)), Q91572 G192A | decreasing interaction |  |
| Cytoplasmic polyadenylation element-binding protein 1-A (Xenopus laevis (African clawed frog)), Q91572 T125A |  | decreasing interaction |
